Source: patent publication US20250325630A1, “HOMODIMER FUSION PROTEINS FOR TREATING ATOPIC DERMATITIS” (Intervet Inc., priority 2021, published 2025)

Key:
canine IL-31Rα = assay: ELISA binding of chimeric and caninized antibodies to canine IL-31Rα; details: FIG. 1-3, in words
Procedure: The nucleotide and deduced amino acid sequence of the HC and LC of selected rat antibodies reactive with canine IL-31Rα was determined. The amino acid sequences representing the 3 HC CDRs and 3 LC CDRs for each antibody also were determined. These CDRs were used to develop caninized antibodies that bind canine IL-31Rα ECD. The binding of caninized antibodies to IL-31Rα was determined by ELISA as follows:
• 1. Anti-Dog IgG (cFc specific)-Peroxidase (Sigma-Aldrich SAB3700109-1.5 MG) • 2. TMB-ELISA Substrate (Thermo-Fisher Cat #34028) • 3. PBS pH7.4 (Thermo-Fisher Cat #10010001) • 4. Tris Buffered Saline with Tween 20 (TBST) (Sigma-Aldrich T9039-10PAK)
• 1. Coat immunoplates by cIL-31Rα in PBS buffer at 1 μg/mL, 100 μL/well. Incubate the plates at 37° C. for 1-2 hrs or 4° C. overnight. • 2. Wash the plates 3 times by TBST buffer. • 3. Block the plates by blocking buffer (0.5% BSA in TBST) for 45-60 minutes at room temperature. • 4. Three-fold dilute anti-cIL31-Ra antibodies with blocking buffer in dilution plates and transfer the diluted antibodies into the cIL-31Rα coated plates, incubate 45-60 minutes at room temperature. • 5. Wash the plates 3 times by TBST. • 6. Add 1:2000 diluted HRP conjugated anti-dog IgG Fc into the plates, incubate 45-60 minutes at room temperature. • 7. Wash the plates 3 times by TBST. • 8. […] Read the plates by plate reader at […].

canine IL-13 [1] = biological target: T1, canine IL-13 (canine, UniProt Q9N0W9 19-131, limits assumed, biotin-labeled in the Octet assay (site not stated)); assay: cell-based or functional assay
T1 sequence (looked up): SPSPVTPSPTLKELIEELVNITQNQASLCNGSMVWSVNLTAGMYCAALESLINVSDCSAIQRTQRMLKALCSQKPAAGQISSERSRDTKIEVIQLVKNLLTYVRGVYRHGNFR

canine IL-4 [2] = biological target: T2, canine IL-4 (canine, UniProt O77762 25-132, biotin-labeled in the Octet assay (site not stated)); assay: cell-based or functional assay
T2 sequence (looked up): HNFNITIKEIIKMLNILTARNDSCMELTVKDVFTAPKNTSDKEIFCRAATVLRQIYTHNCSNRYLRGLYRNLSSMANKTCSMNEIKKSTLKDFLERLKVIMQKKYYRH

canine IL-4 [3] = biological target: T2, canine IL-4; assay: cell-based or functional assay; remark: listed apart in the source
canine IL-13 [4] = biological target: T1, canine IL-13; assay: cell-based or functional assay; remark: listed apart in the source
canine IL-13 [5] = biological target: T1, canine IL-13; assay: cell-based or functional assay; remark: listed apart in the source
canine IL-4 [6] = biological target: T2, canine IL-4; assay: BLI (Octet HTX), biotin-cIL-4 on SA biosensors; ND = Binding Not Detected
Procedure: (§1) The binding constants for the cFc fusion proteins provided in Tables 3 and 4 below, were determined using OCTET® HTX. All kinetics measurements were performed by OCTET® HTX using SA® biosensors and DATA ACQUISITION® 12.0 software. 10 μg/mL of biotin-labeled antigen, either canine IL-4 (cIL-4) or canine IL-13 (cIL-13) were loaded onto the SAR biosensors for 120 seconds. Next, the biosensors were placed into 1×pH 7.0 TBS/Casein buffer for 60 seconds for the blocking phase. For the association phase, antigen loaded biosensors were placed into 2-fold serial dilutions from 1 μM down to 15.6 nM of the wild-type, the bispecific, or the FcRn-mutant receptor Fc-fusions that recognized the cIL-4 or cIL-13 antigen in 1×pH 7.0 TBS/Casein buffer for 30 seconds. The last well was buffer alone and that sensor was used for reference sensor subtraction. Finally, the biosensors were placed into 1×pH 7.0 TBS/Casein buffer for 120 seconds for the dissociation phase. The results were then analyzed using Data Analysis 12.0 software and the curves were fitted using a 1:1 binding model.

canine IL-13 [7] = biological target: T1, canine IL-13; assay: BLI (Octet); summary table, rounded from Table 4
canine IL-13 [8] = biological target: T1, canine IL-13; assay: BLI (Octet HTX), biotin-cIL-13 on SA biosensors, fusion protein in solution, 1:1 fit
Procedure: as §1

B1: c44E2 H5k1: caninized rat 44E2 anti-canine IL-31Rα antibody; likely c44E2VH5-cIgGBm (SEQ ID NO: 43) with c44E2VL1-cCk (SEQ ID NO: 45) (antibody)
heavy: ELTLQESGPGLVKPSQTLSLTCTVSGFSLTSNGVSWIRQRPGRGLEWMGAISSGGSTYYNSVLKSRISITADTAKNQFSLQLSSMTTEDTAVYYCARRLSGYNYVPFAYWGQGTLVTVSSASTTAPSVFPLAPSCGSTSGSTVALACLVSGYFPEPVTVSWNSGSLTSGVHTFPSVLQSSGLYSLSSMVTVPSSRWPSETFTCNVAHPASKTKVDKPVPKRENGRVPRPPDCPKCPAPEMLGGPSVFIFPPKPKDTLLIARTPEVTCVVVALDPEDPEVQISWFVDGKQMQTAKTQPREEQFAGTYRVVSVLPIGHQDWLKGKQFTCKVNNKALPSPIERTISKARGQAHQPSVYVLPPSREELSKNTVSLTCLIKDFFPPDIDVEWQSNGQQEPESKYRTTPPQLDEDGSYFLYSKLSVDKSRWQRGDTFICAVMHEALHNHYTQESLSHSPGK
light: EIVMTQSPASLSLSQEEKVTITCKASQNIYKHLAWYQQKPGQAPKLLIYNANSLQTGVPSRFSGSGSGTDFSFTISSLEPEDVAVYYCQQYYSGDTFGAGTKVELKRNDAQPAVYLFQPSPDQLHTGSASVVCLLNSFYPKDINVKWKVDGVIQDTGIQESVTEQDKDSTYSLSSTLTMSSTEYLSHELYSCEITHKSLPSTLIKSFQRSECQRVD
Question: For B1, which “EC50 of binding to canine IL-31Rα compared with the corresponding chimeric antibody” value (canine IL-31Rα) is on record?
Answer: most similar to the EC50 of the corresponding chimeric 44E2 antibody

B2: cIL-4Rα-13Rα2 ZW1-cFc (Fc fusion)
chain 1: VKVLHEPSCFSDYISTSVCQWKMDHPTNCSAELRLSYQLDFMGSENHTCVPENREDSVCVCSMPIDDAVEADVYQLDLWAGQQLLWSGSFQPSKHVKPRTPGNLTVHPNISHTWLLMWTNPYPTENHLHSELTYMVNVSNDNDPEDFKVYNVTYMGPTLRLAASTLKSGASYSARVRAWAQTYNSTWSDWSPSTTWLNYYEPWEQHLPPKRENGRVPRPPDCPKCPAPEMLGGPSVFIFPPKPKDTLLIARTPEVTCVVVDLDPEDPEVQISWFVDGKQMQTAKTQPREEQFNGTYRVVSVLPIGHQDWLKGKQFTCKVNNKALPSPIERTISKARGQAHQPSVYVYPPSREELSKNTVSLTCLIKDFFPPDIDVEWQSNGQQEPESKYRTTPPQLDEDGSYALVSKLSVDKSRWQRGDTFICAVMHEALHNHYTQESLSHSPGK
chain 2: SMLSNAEIKVNPPQDFEIVDPGYLGYLSLQWQPPLFPDNFKECTIEYELKYRNIDSENWKTIITKNLHYKDGFDLNKGIEAKINTLLPAQCTNGSEVRSSWAETTYWTSPQGNRETKIQDMDCVYYNWQYLVCSWKPGMGVHFDTNYQLFYWYEGLDHSAECTDYIKVNGKNMGCRFPYLESSDYKDFYICVNGSSESQPIRPSYFIFQLQNIVKPMPPDYLSLTVKNSEEINLKWNMPKGPIPAKCFIYEIEFTEDGTTWVTTTVENEIQITRTSNESQKLCFLVRSKVNIYCSDDGIWSEWSDEQCWKGDIWKETPKRENGRVPRPPDCPKCPAPEMLGGPSVFIFPPKPKDTLLIARTPEVTCVVVDLDPEDPEVQISWFVDGKQMQTAKTQPREEQFNGTYRVVSVLPIGHQDWLKGKQFTCKVNNKALPSPIERTISKARGQAHQPSVYVLPPSREELSKNTVSLLCLIKDFFPPDIDVEWQSNGQQEPESKYLTWPPQLDEDGSYFLYSKLSVDKSRWQRGDTFICAVMHEALHNHYTQESLSHSPGK
notes: also called cIL4Rα-IL13Rα2_ZW1-cFc; cIL-4Rα-IL13Rα2_ZW1-cFc
Question: Which results are given for B2?
Answer: IL-13 (IC50), summary table (canine IL-13 [1]): 30 nM; IL-4 (IC50), summary table (canine IL-4 [2]): 200 nM; IL-4 IC50 (inhibition of cIL-4 mediated STAT6 phosphorylation in DH82 cells) (canine IL-4 [3]): 184 nM; IL-13 IC50 (inhibition of cIL-13 mediated STAT6 phosphorylation in DH82 cells) (canine IL-13 [4]): 29.4 nM; fold change of the concentration that inhibits 50% of the cIL-13 mediated STAT6 phosphorylation in DH82 cells, against cIL-13Rα2-cFc (canine IL-13 [5]): ~200 fold higher; binding result (canine IL-4 [6]): no binding (tested: 1 µM (highest concentration tested)); Kd (canine IL-13 [7]): 4 nM; Kd (canine IL-13 [8]): 4.15 nM; koff (canine IL-13 [8]): 0.000135 s⁻¹; kon (canine IL-13 [8]): 32600 M⁻¹ s⁻¹

B3: c10A12 H2L6: caninized rat 10A12 anti-canine IL-31Rα antibody; likely c10A12VH2-cIgGBm (SEQ ID NO: 27) with c10A12VL6-cCl (SEQ ID NO: 31) (antibody)
heavy: EVQLVESGGDLVKPGGSLRLSCAASGFTFSNYYMAWVRQAPGKGLQWVASISTGGGNTYYRDSVKGRFTISRDNAKNTLYLQMNSLRAEDTAMYYCARHGTLYFDYWGQGTLVTVSSASTTAPSVFPLAPSCGSTSGSTVALACLVSGYFPEPVTVSWNSGSLTSGVHTFPSVLQSSGLYSLSSMVTVPSSRWPSETFTCNVAHPASKTKVDKPVPKRENGRVPRPPDCPKCPAPEMLGGPSVFIFPPKPKDTLLIARTPEVTCVVVALDPEDPEVQISWFVDGKQMQTAKTQPREEQFAGTYRVVSVLPIGHQDWLKGKQFTCKVNNKALPSPIERTISKARGQAHQPSVYVLPPSREELSKNTVSLTCLIKDFFPPDIDVEWQSNGQQEPESKYRTTPPQLDEDGSYFLYSKLSVDKSRWQRGDTFICAVMHEALHNHYTQESLSHSPGK
light: QPVLTQPPSLSASLGTTARLTCERSSGDIGDSYVSWYQQKPGSPPRDVIYVDDQRPSEVSKSFSGSKDTSANAGLLLISGLQPEDEADYFCQSYDSNIDGPVFGGGTHLTVLGQPKASPSVTLFPPSSEELGANKATLVCLISDFYPSGVTVAWKADGSPVTQGVETTKPSKQSNNKYAASSYLSLTPDKWKSHSSFSCLVTHEGSTVEKKVAPAECS
Question: Which “EC50 of binding to canine IL-31Rα compared with the corresponding chimeric antibody” value (canine IL-31Rα) does the source give for B3 here?
Answer: even lower than the EC50 for the corresponding chimeric 10A12 antibody
